Legend:
[1] = target: CA24-2人腹水; test: ELISA OD450/630, antibody 15.625 ng/ml captured on goat anti-mouse IgG, CA24-2 human ascites, HRP-labelled same antibody
[2] = target: CA24-2人腹水; test: ELISA OD450/630: supernatant of transiently transfected CHO cells diluted 1000-fold, captured on goat anti-mouse IgG, CA24-2 human ascites, HRP-anti-CA24-2 detection; wells without supernatant OD <0.1
[3] = target: CA24-2人腹水; test: ELISA OD450/630, antibody 62.5 ng/ml captured on goat anti-mouse IgG, CA24-2 human ascites, HRP-labelled same antibody
[4] = target: CA24-2人腹水; test: ELISA OD450/630, antibody 125 ng/ml captured on goat anti-mouse IgG, CA24-2 human ascites, HRP-labelled same antibody
[5] = target: CA24-2人腹水; test: ELISA OD450/630, antibody 7.813 ng/ml captured on goat anti-mouse IgG, CA24-2 human ascites, HRP-labelled same antibody
[6] = target: CA24-2人腹水; test: ELISA OD450/630, antibody 0 ng/ml (blank well), CA24-2 human ascites, HRP-labelled same antibody
[7] = target: CA24-2人腹水; test: ELISA OD450/630, antibody 31.25 ng/ml captured on goat anti-mouse IgG, CA24-2 human ascites, HRP-labelled same antibody

OD450 [1]: 0.329 OD
OD450 [2]: > 1 OD
OD450 [3]: 1.46 OD
OD450 [4]: 1.63 OD
OD450 [5]: 0.246 OD
OD450 [6]: 0.052 OD
OD450 [7]: 0.734 OD
B1: 实施例1的抗CA24-2抗体(WT) (antibody, mouse IgG1, kappa, V domains shown)
VH: EVKLVESGGGLVQPGGSLRLTCATSAFTFSDYYMEWVRQPPGKALEWLGFIRKKADGYTTEYSASIKGRFTISRDDSQNILYLQMNTLRAEDSATYYCARGISTATGVAYWGQGTLVTVSA
VL: DIVMTQSPSSLALSVGQKVTMSCKSSQSIVNTSNQKNYLAWYQQKPGQSPKLLVYWASTRETGVPDRFIGSGSGTDFTLAISSVQAEDLADYYCQQHYSVPFTFGSGTKLEIKR

— CN114605551A
